Laboratory results: PMC4617978
“And” between values parts separate entries of the source, which are not always exact repeats. Equal entries are not always repeated.

Assays:
[1] = target: His6-tagged BAKΔTM (BAK lacking its transmembrane domain, residues 1–186) (human) (UniProt Q16611); experiment: cross-linking
[2] = target: BCLXLΔTM (cleaved by thrombin from GST-BCLXLΔTM); experiment: SPR
[3] = target: MCL1ΔTM (cleaved by thrombin from GST-MCL1ΔTM); experiment: SPR

Row | Molecule | stoichiometry N [1] | fold less tight binding than BAK BH3 peptide [2] | fold less tight binding than BAK BH3 peptide [3]
1 | His6-tagged BAKΔTM (BAK lacking its transmembrane domain, residues 1–186) (from UniProt Q16611 1-186) (domain or fragment) | 2 and 3 | – | –
2 | His6-tagged BAKΔTM (BAK lacking its transmembrane domain, residues 1–186) (domain or fragment) MASGQGPGPPRQECGEPALPSASEEQVAQDTEEVFRSYVFYRHQQEQEAEGVAAPADPEMVTLPLQPSSTMGQVGRQLAIIGDDINRRYDSEFQTMLQHLQPTAENAYEYFTKIATSLFESGINWGRVVALLGFGYRLALHVYQHGLTGFLGQVTRFVVDFMLHHCIARWIAQRGGWVAALNLGNG | – | 100 fold | 100 fold
